Experimental data from patent US20080056997A1.

Target: human domain D of tenascin C (TnC-D) (human) (UniProt P24821)
Assay: method not stated in the sentence (ELISA-positive clone, further characterization)

Chain of UniProt P24821 (P24821 1622-1711): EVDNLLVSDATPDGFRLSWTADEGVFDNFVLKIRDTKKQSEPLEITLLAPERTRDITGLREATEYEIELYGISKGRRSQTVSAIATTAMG

- factor of affinity improvement compared to scFv(D11): 4.8 fold
B1: scFv(P12) (scFv, part only; not given: VH-VL peptide linker, part only)
scFv, part: EVQLVESGGGLVQPGGSLRLSCAASGFTFGQYSMSWVRQAPGKGLEWVSAITGTGGETYYADSVEGRFTISRDNSKNTLYLQMNSLRAEDTAVYYCAKGRRIFDYWGQGTLVTVSRSSELTQDPAVSVALGQTVRITCQGDSLRRQPASWYQQKPGQAPVLVIYYKKLRPSGIPDRFSGSSSGNTASLTITGAQAEDEADYYCNSFSPKPKPVVFGGGTKLTVLG
